Data reported in IntAct's records for PubMed 15637807.

B1: Caspase recruitment domain-containing protein 19 (Homo sapiens), Q96LW7 (parent)
chain: MTDQTYCDRLVQDTPFLTGHGRLSEQQVDRIILQLNRYYPQILTNKEAEKFRNPKASLRVRLCDLLSHLQRSGERDCQEFYRALYIHAQPLHSRLPSRHALRKFHITNHACLVLARGGHPSLPLMAWMSSMTTQVCCSPGLASPLASAPPQRPPSGPEGRVWQAQAVQMLVSVSHFLPLPPSLSHGSFHTAWGILYVHSCPSFSNLIPRGSLHVCVDSNLVPTAAWRS
partner: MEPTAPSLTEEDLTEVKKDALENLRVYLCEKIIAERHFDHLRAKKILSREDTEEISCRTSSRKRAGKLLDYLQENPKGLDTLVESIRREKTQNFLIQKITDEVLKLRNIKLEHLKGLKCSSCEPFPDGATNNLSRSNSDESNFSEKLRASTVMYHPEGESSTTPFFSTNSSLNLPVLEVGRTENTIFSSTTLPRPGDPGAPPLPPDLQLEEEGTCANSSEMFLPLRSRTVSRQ

Variants of: B1
Settings: with bcl10_human BCL10, O95999

Variant | effect of a mutation on the interaction
MTDQTYCDRLVQDTPFLTGHGRLSEQQVDRIILQLNRYYPQILTNKEAEKFRNPKASLRVRLCDALSHLQRSGERDCQEFYRALYIHAQPLHSRLPSRHALRKFHITNHACLVLARGGHPSLPLMAWMSSMTTQVCCSPGLASPLASAPPQRPPSGPEGRVWQAQAVQMLVSVSHFLPLPPSLSHGSFHTAWGILYVHSCPSFSNLIPRGSLHVCVDSNLVPTAAWRS [L65A] | disrupting interaction
